Publication PMC7804152, “Structural basis for the multi-activity factor Rad5 in replication stress tolerance”

Experiments:
KlHIRAN = target: T1, KlHIRAN (Kluyveromyces lactis, UniProt Q6CJM4 174-341); test: fluorescence polarization; 50 mM NaCl; stronger than blunt dsDNA; FP: 20 mM Tris pH 7.5, 50 mM (dsDNA, KlHIRAN) or 70 mM (ssDNA) NaCl, 2 mM MgCl2, 1 nM DNA, room temp; EMSA: 20 mM Tris pH 7.5, 100 mM KCl, 0.5 mM DTT, 3% glycerol, 2 mM MgCl2, 250 ug/mL BSA, 4 C; pull-down: 20 mM Tris pH 7.5, 50 mM NaCl, 4 C; settings: protein: recombinant, tags: intein-CBD cleaved off
T1 sequence: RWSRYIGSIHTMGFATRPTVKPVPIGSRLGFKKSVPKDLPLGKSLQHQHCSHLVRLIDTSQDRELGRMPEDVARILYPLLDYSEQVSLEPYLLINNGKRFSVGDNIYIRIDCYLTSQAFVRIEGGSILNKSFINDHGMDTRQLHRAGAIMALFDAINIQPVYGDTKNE

His-KlRad5 = target: T2, His-KlRad5 (Kluyveromyces lactis, UniProt Q6CJM4 163-1114); test: fluorescence polarization; FP: 20 mM Tris pH 7.5, 50 mM (dsDNA, KlHIRAN) or 70 mM (ssDNA) NaCl, 2 mM MgCl2, 1 nM DNA, room temp; EMSA: 20 mM Tris pH 7.5, 100 mM KCl, 0.5 mM DTT, 3% glycerol, 2 mM MgCl2, 250 ug/mL BSA, 4 C; pull-down: 20 mM Tris pH 7.5, 50 mM NaCl, 4 C; settings: protein: recombinant; tags: N-terminal His6; label: 5'-FAM; blunt
T2 sequence: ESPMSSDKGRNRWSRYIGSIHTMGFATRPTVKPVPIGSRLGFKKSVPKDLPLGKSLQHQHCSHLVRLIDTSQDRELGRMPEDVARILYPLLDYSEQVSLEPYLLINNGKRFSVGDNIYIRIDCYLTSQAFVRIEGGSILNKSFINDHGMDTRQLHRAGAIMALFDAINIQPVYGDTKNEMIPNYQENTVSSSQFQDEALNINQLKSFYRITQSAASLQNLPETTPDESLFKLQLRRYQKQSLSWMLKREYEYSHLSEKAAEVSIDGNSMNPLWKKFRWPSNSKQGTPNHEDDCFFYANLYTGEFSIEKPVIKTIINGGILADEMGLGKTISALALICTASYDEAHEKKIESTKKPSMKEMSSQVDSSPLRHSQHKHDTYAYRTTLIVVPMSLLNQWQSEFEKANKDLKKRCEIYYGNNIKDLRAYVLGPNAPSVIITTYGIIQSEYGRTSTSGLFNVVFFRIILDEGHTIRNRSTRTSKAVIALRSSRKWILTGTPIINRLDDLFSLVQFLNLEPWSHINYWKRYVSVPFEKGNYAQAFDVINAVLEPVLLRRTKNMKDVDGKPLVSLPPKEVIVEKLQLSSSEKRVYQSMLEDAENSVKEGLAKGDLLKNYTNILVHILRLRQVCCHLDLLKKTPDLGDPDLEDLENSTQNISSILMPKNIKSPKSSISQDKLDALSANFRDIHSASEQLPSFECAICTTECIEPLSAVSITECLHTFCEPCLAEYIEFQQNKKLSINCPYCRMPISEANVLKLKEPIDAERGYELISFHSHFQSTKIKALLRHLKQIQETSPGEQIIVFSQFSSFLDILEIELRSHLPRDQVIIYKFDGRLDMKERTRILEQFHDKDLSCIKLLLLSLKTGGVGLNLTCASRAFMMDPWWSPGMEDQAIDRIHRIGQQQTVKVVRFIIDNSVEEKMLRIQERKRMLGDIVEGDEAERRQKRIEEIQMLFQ

KlRad5 [1] = target: T3, KlRad5 (Kluyveromyces lactis, UniProt Q6CJM4 163-1114); test: fluorescence polarization; 50 mM NaCl; high affinity, Kd only in figure; FP: 20 mM Tris pH 7.5, 50 mM (dsDNA, KlHIRAN) or 70 mM (ssDNA) NaCl, 2 mM MgCl2, 1 nM DNA, room temp; EMSA: 20 mM Tris pH 7.5, 100 mM KCl, 0.5 mM DTT, 3% glycerol, 2 mM MgCl2, 250 ug/mL BSA, 4 C; pull-down: 20 mM Tris pH 7.5, 50 mM NaCl, 4 C; settings: protein: recombinant; tags: none; label: 5'-FAM; blunt
T3 sequence: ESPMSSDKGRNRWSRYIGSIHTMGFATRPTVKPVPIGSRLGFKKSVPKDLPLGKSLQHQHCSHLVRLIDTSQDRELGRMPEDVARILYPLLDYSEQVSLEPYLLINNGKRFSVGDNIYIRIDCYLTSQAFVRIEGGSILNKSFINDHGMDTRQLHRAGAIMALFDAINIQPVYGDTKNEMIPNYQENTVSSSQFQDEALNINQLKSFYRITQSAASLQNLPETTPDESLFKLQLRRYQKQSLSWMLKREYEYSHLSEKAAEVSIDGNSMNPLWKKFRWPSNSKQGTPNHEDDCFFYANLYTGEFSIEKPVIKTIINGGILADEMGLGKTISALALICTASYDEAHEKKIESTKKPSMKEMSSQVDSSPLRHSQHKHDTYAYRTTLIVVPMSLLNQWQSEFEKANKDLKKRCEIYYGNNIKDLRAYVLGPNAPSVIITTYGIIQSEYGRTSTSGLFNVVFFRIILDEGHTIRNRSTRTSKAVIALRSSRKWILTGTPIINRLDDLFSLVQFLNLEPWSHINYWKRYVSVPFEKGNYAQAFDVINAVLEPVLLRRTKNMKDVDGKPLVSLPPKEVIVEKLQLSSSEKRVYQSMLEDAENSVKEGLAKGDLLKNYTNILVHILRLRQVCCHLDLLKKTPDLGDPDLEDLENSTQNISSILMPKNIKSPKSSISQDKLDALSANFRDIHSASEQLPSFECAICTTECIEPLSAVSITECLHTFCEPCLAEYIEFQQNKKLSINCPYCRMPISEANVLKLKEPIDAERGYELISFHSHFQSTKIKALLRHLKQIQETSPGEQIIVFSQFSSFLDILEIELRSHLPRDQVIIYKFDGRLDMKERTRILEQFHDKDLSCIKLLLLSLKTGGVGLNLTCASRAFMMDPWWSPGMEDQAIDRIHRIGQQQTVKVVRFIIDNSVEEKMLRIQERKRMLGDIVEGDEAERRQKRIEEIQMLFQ

KlRad5 [2] = target: T3, KlRad5; test: pull-down; 50 mM NaCl; FP: 20 mM Tris pH 7.5, 50 mM (dsDNA, KlHIRAN) or 70 mM (ssDNA) NaCl, 2 mM MgCl2, 1 nM DNA, room temp; EMSA: 20 mM Tris pH 7.5, 100 mM KCl, 0.5 mM DTT, 3% glycerol, 2 mM MgCl2, 250 ug/mL BSA, 4 C; pull-down: 20 mM Tris pH 7.5, 50 mM NaCl, 4 C; settings: protein: recombinant; tags: none; label: 5'-biotin; blunt, self-annealing, 2 copies of D1
KlRad5 [3] = target: T3, KlRad5; test: hydrogen-deuterium exchange MS; 200 mM NaCl; protection of 548-554, 684-700, 1039-1049, 1081-1092; FP: 20 mM Tris pH 7.5, 50 mM (dsDNA, KlHIRAN) or 70 mM (ssDNA) NaCl, 2 mM MgCl2, 1 nM DNA, room temp; EMSA: 20 mM Tris pH 7.5, 100 mM KCl, 0.5 mM DTT, 3% glycerol, 2 mM MgCl2, 250 ug/mL BSA, 4 C; pull-down: 20 mM Tris pH 7.5, 50 mM NaCl, 4 C; settings: protein: recombinant; tags: none; blunt, self-annealing, 2 copies of D1

CAACGTCATAGACGATTACATTGCTACATGGAGCTGTCTAGAGGATCCGA (ssDNA) [D3a ssDNA]: binds (KlHIRAN; label: 5'-FAM).

B1: D3a/D3d 3'-overhang dsDNA (dsDNA)
DNA 1: CAACGTCATAGACGATTACATTGCTACATGGAGCTGTCTAGAGGATCCGA
DNA 2: AGCAATGTAATCGTCTATGACGTTG
B1: binds (KlHIRAN; label: 3'-FAM on D3a, 3' overhang 25 nt (D3a)).

B2: D3a/D3c 5'-overhang dsDNA (dsDNA)
DNA 1: CAACGTCATAGACGATTACATTGCTACATGGAGCTGTCTAGAGGATCCGA
DNA 2: TCGGATCCTCTAGACAGCTCCATGT
B2: binds (KlHIRAN; label: 5'-FAM on D3a, 5' overhang 25 nt (D3a)).

B3: D2a/D2b dsDNA (dsDNA)
DNA 1: ACCAGTGCCAGTGAT
DNA 2: ATCACTGGCACTGGT
B3: binds (His-KlRad5); binds (KlRad5 [1]).

B4: D1 dsDNA, 5'-biotin (dsDNA)
DNA 1: TCGGATCCTCTAGACAGCTCCATGCATGGAGCTGTCTAGAGGATCCGA
DNA 2: TCGGATCCTCTAGACAGCTCCATGCATGGAGCTGTCTAGAGGATCCGA
B4: binds (KlRad5 [2]).

B5: D1 dsDNA, unlabelled (dsDNA)
DNA 1: TCGGATCCTCTAGACAGCTCCATGCATGGAGCTGTCTAGAGGATCCGA
DNA 2: TCGGATCCTCTAGACAGCTCCATGCATGGAGCTGTCTAGAGGATCCGA
B5: binds (KlRad5 [3]).
